What was measured:
[1] = test system: nuclei of Xenopus XTC-2 cells; test: Biochemical complementation assay: release of TBP from nuclei by purified proteins combined with SP Sepharose flow through (FT); settings: for reconstitution of release of TBP from nuclei: combined with SP Sepharose FT in the presence of ERS, FIG. 4D
Method: (§1) “Extract” refers to unfractionated egg extract. […] The gel was stained with Coomassie Blue. FIG. 4C depicts ATPase activity of ISWI-D and rISWI. ATPase activity was determined in the presence of buffer (−), DNA (D), or nucleosomes (N). The arrowhead indicates the free phosphate generated by ATP hydrolysis. FIG. 4D depicts biochemical complementation assays for activities capable of removing TBP from the nucleus. Egg extract (Ext), SP Sepharose flow through (FT), and FT complemented with various purified proteins at indicated concentrations were compared for remodeling activity by monitoring residual TBP in the nuclear pellet after incubation of nuclei in an egg extract. All lanes included ERS except lanes 7 and 8, which contained apyrase. Np indicates nucleoplasmin.
(§2) The ISWI-D complex was purified from Xenopus egg extract (FIG. 4A), and shown to contain two subunits: p195 and ISWI (FIG. 4B). For the purification, egg extract was fractionated through BioRex 70 (Bio-Rad, Hercules, Calif.) and MonoQ (Amersham Pharmacia, Piscataway, N.J.) essentially as described in Wade et al. (1998) Curr Biol 8:843–846. The MonoQ ISWI-D peak (eluting at approximately 0.45 M NaCl) was further purified by gradient elution on MonoS (linear gradient from 0.1 to 0.5 M NaCl in Buffer A) as described in Wade et al., supra. ISWI-D was eluted at approximately 0.3 M NaCl. Drosophila rISWI was produced in E. coli and purified by IMPACT T7 system (New England Biolabs, Beverly, Mass.) and Superdex 200 gel filtration column (Amersham Pharmacia). ATPase activity was tested as described in Corona et al, supra.
Either ISWI-D complex or rISWI were essential for release of TBP from nuclei. The endogenous activity in the extract responsible for the release of TBP from chromatin was depleted by applying the extract to SP Sepharose, and restored by combining the SP Sepharaose flow through (FT) and the 0.5 M NaCl eluate from BioRex 70 that contained ISWI (FIG. 4D, lanes 2 and 3). FT was prepared from SP Sepharose (Amersham Pharmacia) by equilibrating the resin with Buffer A and briefly centrifuging to deplete the buffer. The egg extract was incubated with the equilibrated resin for 30 minutes in a cold room and briefly centrifuged to collect FT. […] Release of TBP from nuclei by ISWI plus FT was also confirmed by immunofluorescence.
Three other proteins known to modify protein-DNA interactions (TAF172, the Mi-2 complex and nucleoplasmin) were also tested in this biochemical complementation assay. Recombinant human TAF172 was prepared in a baculovirus expression system (see Chicca et al. (1998) Mol Cell Biol 18:1701–1710), while the Mi-2 complex and nucleoplasmin were isolated from Xenopus egg extracts. TAF 172, the human homologue of yeast Mot1, also belongs to the SWI2/SNF2 superfamily and removes TBP from DNA in vitro (Auble et al. (1994) Genes Dev 8:1920–1934; Chicca et al., supra). The Xenopus Mi-2 complex contains Mi-2, also a member of the SWI2/SNF2 superfamily, in addition to five other subunits and remodels chromatin (Wade et al (1998) Curr Biol 8:843–846; Guschin et al. (2000) Biochem 39:5238–5245). Nucleoplasmin remodels sperm chromatin upon fertilization (Dimitrov et al., supra; Philpott et al. (2000) Cell 69:759767). […] Higher concentrations of these proteins were also tested, with similar results.

[2] = test system: nuclei of Xenopus XTC-2 cells; test: Nuclear remodeling assay: permeabilized somatic nuclei incubated in Xenopus egg S phase extract, TBP in nuclear pellet by immunoblot; assay type: biochemical; settings: agent added to nuclear remodeling reaction in egg extract; immunoblot FIG. 1A
Method: To simplify nuclear remodeling assays by eliminating nuclear transport steps, both the plasma membrane and nuclear envelope of Xenopus XTC-2 cells (henceforth called nuclei) were permeabilized with a detergent, essentially as described in Adam et al. (1992) Methods Enzymol. […] Xenopus XTC-2 cells were permeabilized with 30 μg/ml digitonin for three minutes using the LL-Bsa method (Gurdon (1976) J. Embryol. Exp. Morphol. 36:5235407) replacing lysolecithin (which caused tight aggregation of nuclei) by digitonin. […] The permeability of the nuclear envelope was monitored by the passive entry of fluorescence-labeled immunoglobulin G (150k Da) into the nuclei (Newmeyer et al. (1986) J Cell Biol 103:2091–2102). […]
After incubation for two hours at room temperature 100 μl of Buffer B (10 mM HEPES pH 7.8, 75 mM KCl, 4 mM magnesium chloride, 250 mM sucrose, 0.5 mM spermidine trihydrochloride, 0.15 mM spermine tetrahydrochloride, 1 mM dithiothreitol, 10 mM β-glycerophosphate, 1 μg/ml leupeptin, 2 μg/ml pepstatin A, 100 μM 4-(2-aminoethyl)-benzenesulfonyl fluoride, AEBSF) was added and the reaction mix was centrifuged at 15,000× g for 10 min. The pellet, called remodeled nuclei, was analyzed by immunoblotting using SuperSignal West Dura (Pierce, Rockford, Ill.) as a substrate of horseradish peroxidase.

nuclear matrix = test: Release of TBP from purified nuclear matrix, immunoblot; assay type: biochemical, Xenopus; settings: presence of ERS; ISWI-D or rISWI added to the FT fraction; FIG. 5
Method: Analysis of histone H2B is shown as a control. Nuclear matrix was prepared as described in the Examples, and nuclear matrix proteins were separated by gel electorphoresis. Each lane contained matrix from 4×10^5 nuclei. The gel was blotted, and the blots were analyzed with antibodies to TBP or H2B. Nuclei were incubated with egg extract (lanes 2 and 3) or various combinations of proteins and protein fractions (lanes 4–8) prior to preparation of nuclear matrix. Analysis of a preparation of nuclear matrix from nuclei that were not incubated with extract or proteins is shown in lane 1. Presence or absence of an ERS in the incubation is indicated by “+” and “−,” respectively.
To understand the mechanism of the release of TBP further, nuclear matrix was prepared from the nuclei that had not been incubated in the egg extract, by using 0.5% Triton X-100, DNase I, 250 mM ammonium sulfate, and 2M NaCl. The nuclear matrix was prepared essentially as described D. L. Spector and D. Goldman, L. L. A, in Cells, A Laboratory Manual. (Cold Spring Harbor Laboratory Press, New York, 1997) pp. 44.1–44.8. […]
The purified nuclear matrix was incubated in the egg extract and its composition was analyzed by immunoblotting.

nucleosomes = test: ATPase activity in the presence of buffer, DNA or nucleosomes; assay type: biochemical; settings: FIG. 4C
Method: as §1
as §2, with “Drosophila rISWI was produced in E. coli and purified by IMPACT T7 system (New England Biolabs, Beverly, Mass.) and Superdex 200 gel filtration column (Amersham Pharmacia). ATPase activity was tested as described in Corona et al, supra.” left out

Molecule | reconstitution of release of TBP from nuclei [1] | effect on exclusion (loss) of TBP from nuclei in egg extract [2] | other results
TAF172: recombinant human TAF172, homologue of yeast Mot1, prepared in a baculovirus expression system | None of these proteins proved capable of reconstituting TBP removal activity | – | –
aphidicholin | – | neither aphidicholin nor arabinosylcytosine (both inhibitors of DNA replication) inhibited the loss of TBP | –
apyrase | – | exclusion was inhibited | –
nucleoplasmin: molecular chaperone isolated from Xenopus egg extracts; remodels sperm chromatin | None of these proteins proved capable of reconstituting TBP removal activity | – | –
rISWI: recombinant Drosophila ISWI produced in E. coli (protein, UniProt Q24368 1-1027, looked up) Chromatin-remodeling complex …: MSKTDTAAVEATEENSNETTSDAATSSSGEKEAEFDNKIEADRSRRFDFLLKQTEIFTHFMTNSAKSPTKPKGRPKKIKDKDKEKDVADHRHRKTEQEEDEELLAEDSATKEIFRFDASPAYIKSGEMRDYQIRGLNWMISLYENGINGILADEMGLGKTLQTISLLGYLKHFKNQAGPHIVIVPKSTLQNWVNEFKKWCPSLRAVCLIGDQDTRNTFIRDVLMPGEWDVCVTSYEMCIREKSVFKKFNWRYLVIDEAHRIKNEKSKLSEILREFKTANRLLITGTPLQNNLHELWALLNFLLPDVFNSSEDFDEWFNTNTCLGDDALITRLHAVLKPFLLRRLKAEVEKRLKPKKEMKIFVGLSKMQRDWYTKVLLKDIDVVNGAGKVEKMRLQNILMQLRKCTNHPYLFDGAEPGPPYTTDTHLVYNSGKMAILDKLLPKLQEQGSRVLIFSQMTRMLDILEDYCHWRNYNYCRLDGQTPHEDRNRQIQEFNMDNSAKFLFMLSTRAGGLGINLATADVVIIYDSDWNPQMDLQAMDRAHRIGQKKQVRVFRLITESTVEEKIVERAEVKLRLDKMVIQGGRLVDNRSNQLNKDEMLNIIRFGANQVFSSKETDITDEDIDVILERGEAKTAEQKAALDSLGESSLRTFTMDTNGEAGTSSVYQFEGEDWREKQKLNALGNWIEPPKRERKANYAVDAYFREALRVSEPKAPKAPRPPKQPIVQDFQFFPPRLFELLDQEIYYFRKTVGYKVPKNTELGSDATKVQREEQRKIDEAEPLTEEEIQEKENLLSQGFTAWTKRDFNQFIKANEKYGRDDIDNIAKDVEGKTPEEVIEYNAVFWERCTELQDIERIMGQIERGEGKIQRRLSIKKALDQKMSRYRAPFHQLRLQYGNNKGKNYTEIEDRFLVCMLHKLGFDKENVYEELRAAIRASPQFRFDWFIKSRTALELQRRCNTLITLIERENIELEEKERAEKKKKAPKGSVSAGSGSASSNTPAPAPQPKASQKRKSEVVATSSNSKKKKK | competent to reconstitute release of TBP from nuclei | – | release of TBP from nuclei in combination with nucleoplasmin ([1]; nucleoplasmin substituted for the FT fraction): incapable of releasing TBP from nuclei; release of TBP from nuclei in the absence of FT ([1]; without FT fraction): Neither the ISWI-D complex nor rISWI could release TBP from nuclei; release of TBP from the nuclear matrix (nuclear matrix): resulted in release of TBP
mutant of rISWI: rISWI in which lysine 159 in the adenine nucleotide binding domain was replaced with arginine; negative control (protein, UniProt Q24368 1-1027, looked up, variant K159R) Chromatin-remodeling complex …: MSKTDTAAVEATEENSNETTSDAATSSSGEKEAEFDNKIEADRSRRFDFLLKQTEIFTHFMTNSAKSPTKPKGRPKKIKDKDKEKDVADHRHRKTEQEEDEELLAEDSATKEIFRFDASPAYIKSGEMRDYQIRGLNWMISLYENGINGILADEMGLGRTLQTISLLGYLKHFKNQAGPHIVIVPKSTLQNWVNEFKKWCPSLRAVCLIGDQDTRNTFIRDVLMPGEWDVCVTSYEMCIREKSVFKKFNWRYLVIDEAHRIKNEKSKLSEILREFKTANRLLITGTPLQNNLHELWALLNFLLPDVFNSSEDFDEWFNTNTCLGDDALITRLHAVLKPFLLRRLKAEVEKRLKPKKEMKIFVGLSKMQRDWYTKVLLKDIDVVNGAGKVEKMRLQNILMQLRKCTNHPYLFDGAEPGPPYTTDTHLVYNSGKMAILDKLLPKLQEQGSRVLIFSQMTRMLDILEDYCHWRNYNYCRLDGQTPHEDRNRQIQEFNMDNSAKFLFMLSTRAGGLGINLATADVVIIYDSDWNPQMDLQAMDRAHRIGQKKQVRVFRLITESTVEEKIVERAEVKLRLDKMVIQGGRLVDNRSNQLNKDEMLNIIRFGANQVFSSKETDITDEDIDVILERGEAKTAEQKAALDSLGESSLRTFTMDTNGEAGTSSVYQFEGEDWREKQKLNALGNWIEPPKRERKANYAVDAYFREALRVSEPKAPKAPRPPKQPIVQDFQFFPPRLFELLDQEIYYFRKTVGYKVPKNTELGSDATKVQREEQRKIDEAEPLTEEEIQEKENLLSQGFTAWTKRDFNQFIKANEKYGRDDIDNIAKDVEGKTPEEVIEYNAVFWERCTELQDIERIMGQIERGEGKIQRRLSIKKALDQKMSRYRAPFHQLRLQYGNNKGKNYTEIEDRFLVCMLHKLGFDKENVYEELRAAIRASPQFRFDWFIKSRTALELQRRCNTLITLIERENIELEEKERAEKKKKAPKGSVSAGSGSASSNTPAPAPQPKASQKRKSEVVATSSNSKKKKK | not competent to reconstitute release of TBP from nuclei | – | nucleosomal ATPase activity (nucleosomes): lacked nucleosomal ATPase activity
